The source of these data is patent US20230331827A1, “POTASSIUM CHANNEL INHIBITORS” (priority 2017, published 2023).

In experiment [1] the target is human Kv1.3 (human) (UniProt P22001). As to the kind of experiment: cell-based or functional assay.
Experiment [2] has the same target. As to the kind of experiment: cell-based or functional assay. The source holds these as a separate data set.
Experiment [3] has as its target human Kv1.1 (human) (UniProt Q09470). Kind of experiment: cell-based or functional assay.
The target of experiment [4] is trypsin. As to the kind of experiment: monoclonal phage ELISA on trypsin.

Like-named read-outs stand apart in the source and are kept apart here.

Chain of human Kv1.1 (human) (Q09470 whole entry): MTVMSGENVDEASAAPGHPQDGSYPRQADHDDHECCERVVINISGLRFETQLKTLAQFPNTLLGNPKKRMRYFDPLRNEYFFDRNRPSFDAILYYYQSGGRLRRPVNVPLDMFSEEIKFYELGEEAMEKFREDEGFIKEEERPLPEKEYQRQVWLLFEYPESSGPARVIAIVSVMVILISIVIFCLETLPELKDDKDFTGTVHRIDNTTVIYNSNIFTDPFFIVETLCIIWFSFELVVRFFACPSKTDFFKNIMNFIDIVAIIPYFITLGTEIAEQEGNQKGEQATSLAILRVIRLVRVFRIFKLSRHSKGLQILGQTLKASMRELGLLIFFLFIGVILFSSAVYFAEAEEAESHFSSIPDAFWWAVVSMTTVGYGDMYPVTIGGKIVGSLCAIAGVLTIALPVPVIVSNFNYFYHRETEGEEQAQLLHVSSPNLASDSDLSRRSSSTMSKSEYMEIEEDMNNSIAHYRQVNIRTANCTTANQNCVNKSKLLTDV
Chain of human Kv1.3 (human) (P22001 whole entry): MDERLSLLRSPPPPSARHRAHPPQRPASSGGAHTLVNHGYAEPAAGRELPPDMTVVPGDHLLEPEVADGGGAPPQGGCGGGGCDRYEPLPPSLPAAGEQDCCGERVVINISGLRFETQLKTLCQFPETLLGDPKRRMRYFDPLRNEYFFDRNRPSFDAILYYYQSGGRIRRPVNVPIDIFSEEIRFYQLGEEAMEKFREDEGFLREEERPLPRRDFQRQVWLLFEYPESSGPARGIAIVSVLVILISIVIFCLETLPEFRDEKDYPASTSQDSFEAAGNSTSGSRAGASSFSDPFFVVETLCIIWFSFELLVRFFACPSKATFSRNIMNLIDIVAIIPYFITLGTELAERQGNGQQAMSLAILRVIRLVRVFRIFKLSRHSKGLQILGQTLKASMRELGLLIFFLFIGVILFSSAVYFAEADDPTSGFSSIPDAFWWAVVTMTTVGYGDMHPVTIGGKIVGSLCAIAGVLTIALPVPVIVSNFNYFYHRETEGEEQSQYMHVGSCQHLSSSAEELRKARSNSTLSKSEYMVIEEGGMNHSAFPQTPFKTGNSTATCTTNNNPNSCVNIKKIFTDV

B1: KB_A12_KTX (antibody)
VH: EVQLVESGGGLVRPGGSLRLSCAASGFTFSSYAMSWVRQAPGKGLEWVSAISGSGGSTYYADSVKGRFTISRDNTKNSLYLQMTSLRADDTAFYYCVKDFGPGYGTGWFDYWGPGTLVTVSS
VL: QSVLTQPPSVSEAPRQRVTITCSGSSSNIGNNAVNWYQQLPGKAPKLLIYAAGRGVEINVKCSGSPQCLKPCKDAGMRFGKCMNRKCHCTPKANSGVSDRFSAAKSGTSASLAINGLRSEDEADYYCAAWDDSLNGYVFGTGTKLTVLGQP
B1: in experiment [1], the IC50, huKv1.3 current, QPatch patch clamp is 430 nM. In experiment [2], this molecule came in with a Fold difference (Kv1.1 IC50 against Kv1.3 IC50) of 3 fold; an IC50, huKv1.3 current, QPatch patch clamp of over 10000 nM; a Kv1.3 IC50, QPatch patch clamp of 1540 nM. The Kv1.1 IC50, QPatch patch clamp in experiment [3] is 4800 nM.

B2: KB_A12_AnTx-N17A/F32T (antibody, V domains shown)
VH: EVQLVESGGGLVRPGGSLRLSCAASGFTFSSYAMSWVRQAPGKGLEWVSAISGSGGSTYYADSVKGRFTISRDNTKNSLYLQMTSLRADDTAFYYCVKDFGPGYGTGWFDYWGPGTLVTVSS
VL: QSVLTQPPSVSEAPRQRVTITCSGSSSNIGNNAVNWYQQLPGKAPKLLIYAAGRQKECTGPQHCTNFCRKAKCTHGKCMNRKCKCTNCKANSGVSDRFSAAKSGTSASLAINGLRSEDEADYYCAAWDDSLNGYVFGTGTKLTVLG
B2: the IC50, huKv1.3 current, QPatch patch clamp in experiment [1] amounted to 85 nM. In experiment [2], this molecule had a Fold difference (Kv1.1 IC50 against Kv1.3 IC50) of 94 fold and a Kv1.3 IC50, QPatch patch clamp of 110 nM. Moreover, in experiment [3], the Kv1.1 IC50, QPatch patch clamp is 10300 nM.

B3: E08 (EET 5-3 KnotBody) (scFv, V domains shown)
VH: EVQLVESGGGLVRPGGSLRLSCAASGFTFSSYAMSWVRQAPGKGLEWVSAISGSGGSTYYADSVKGRFTISRDNTKNSLYLQMTSLRADDTAFYYCVKDFGPGYGTGWFDYWGPGTLVTVSS
VL: AVNWYQQLPGKAPKLLIYAAGGCGPNGFCGSGSDGGVCPRILMRCKQDSDCLAGCGIQSGIPERFSGSKSGTSASLAISGLRSEDEADYYCAAWDDNLSGYVFGTGTKLTVLG
As for B3, the ELISA signal in experiment [4] stood at 121000.

B4: C09 (EET 5-3 KnotBody) (scFv, V domains shown)
VH: EVQLVESGGGLVRPGGSLRLSCAASGFTFSSYAMSWVRQAPGKGLEWVSAISGSGGSTYYADSVKGRFTISRDNTKNSLYLQMTSLRADDTAFYYCVKDFGPGYGTGWFDYWGPGTLVTVSS
VL: SEAPRQRVTITCGGKRCGPNGFCGSGSDGGVCPRILMRCKQDSDCLAGCTSNWYQQKPGQAPVLVVQDDSVRPSGIPERFSGSNSGNTATLTISRVEAGDGADYYCQVWDISSDLGVFGGGTKLTVLG
In experiment [4], B4 returned an ELISA signal of 9820.

B5: KB_A12_Odk2 short (antibody, V domains shown)
VH: EVQLVESGGGLVRPGGSLRLSCAASGFTFSSYAMSWVRQAPGKGLEWVSAISGSGGSTYYADSVKGRFTISRDNTKNSLYLQMTSLRADDTAFYYCVKDFGPGYGTGWFDYWGPGTLVTVSS
VL: NWYQQLPGKAPKLLIYAAGRVKCRGSPQCIQPCKDAGMRFGKCMNGKCHCTPKANSGVSDRFSAAKSGTSASLAINGLRSEDEADYYCAAWDDSLNGYVFGTGTKLTVLG
With B5, the IC50, huKv1.3 current, QPatch patch clamp in experiment [1] was 64 nM. In experiment [2], this molecule showed a Fold difference (Kv1.1 IC50 against Kv1.3 IC50) of 8 fold and a Kv1.3 IC50, QPatch patch clamp of 49 nM. Also, the Kv1.1 IC50, QPatch patch clamp in experiment [3] was found to be 380 nM.

B6: KB_A12_Odk2 (antibody, V domains shown)
VH: EVQLVESGGGLVRPGGSLRLSCAASGFTFSSYAMSWVRQAPGKGLEWVSAISGSGGSTYYADSVKGRFTISRDNTKNSLYLQMTSLRADDTAFYYCVKDFGPGYGTGWFDYWGPGTLVTVSS
VL: QSVLTQPPSVSEAPRQRVTITCSGSSSNIGNNAVNWYQQLPGKAPKLLIYAAGRGVPTDVKCRGSPQCIQPCKDAGMRFGKCMNGKCHCTPKANSGVSDRFSAAKSGTSASLAINGLRSEDEADYYCAAWDDSLNGYVFGTGTKLTVLG
Molecule B6 gave an IC50, huKv1.3 current, QPatch patch clamp in experiment [1] of 222 nM. In experiment [2], the Fold difference (Kv1.1 IC50 against Kv1.3 IC50) was determined as 6 fold and the Kv1.3 IC50, QPatch patch clamp is 457 nM. The Kv1.1 IC50, QPatch patch clamp in experiment [3] is 2750 nM.

B7: KB_A12_HsTx1 (antibody, V domains shown)
VH: EVQLVESGGGLVRPGGSLRLSCAASGFTFSSYAMSWVRQAPGKGLEWVSAISGSGGSTYYADSVKGRFTISRDNTKNSLYLQMTSLRADDTAFYYCVKDFGPGYGTGWFDYWGPGTLVTVSS
VL: NWYQQLPGKAPKLLIYAAGRASCRTPKDCADPCRKETGCPYGKCMNRKCKCNRCANSGVSDRFSAAKSGTSASLAINGLRSEDEADYYCAAWDDSLNGYVFGTGTKLTVLG
Molecule B7 showed an IC50, huKv1.3 current, QPatch patch clamp in experiment [1] of 3.9 nM. In experiment [2], this molecule displayed a Fold difference (Kv1.1 IC50 against Kv1.3 IC50) of 43 fold and a Kv1.3 IC50, QPatch patch clamp of 15 nM. This molecule also returned a Kv1.1 IC50, QPatch patch clamp in experiment [3] of 650 nM.

B8: KB_A12_ADWX1 short (antibody, V domains shown)
VH: EVQLVESGGGLVRPGGSLRLSCAASGFTFSSYAMSWVRQAPGKGLEWVSAISGSGGSTYYADSVKGRFTISRDNTKNSLYLQMTSLRADDTAFYYCVKDFGPGYGTGWFDYWGPGTLVTVSS
VL: NWYQQLPGKAPKLLIYAAGRVKCKHSRQCLKPCKDAGMRFGKCTNGKCHCTPKANSGVSDRFSAAKSGTSASLAINGLRSEDEADYYCAAWDDSLNGYVFGTGTKLTVLG
In experiment [1], B8 registered an IC50, huKv1.3 current, QPatch patch clamp of 170 nM. In experiment [2], this molecule had a Fold difference (Kv1.1 IC50 against Kv1.3 IC50) of 6 fold and a Kv1.3 IC50, QPatch patch clamp of 251 nM. Also, in experiment [3], the Kv1.1 IC50, QPatch patch clamp stood at 1400 nM.

B9: KB_A12_Vm24 (antibody, V domains shown)
VH: EVQLVESGGGLVRPGGSLRLSCAASGFTFSSYAMSWVRQAPGKGLEWVSAISGSGGSTYYADSVKGRFTISRDNTKNSLYLQMTSLRADDTAFYYCVKDFGPGYGTGWFDYWGPGTLVTVSS
VL: QSVLTQPPSVSEAPRQRVTITCSGSSSNIGNNAVNWYQQLPGKAPKLLIYAAGRAAAISCVGSPECPPKCRAQGCKNGKCMNRKCKCYYCANSGVSDRFSAAKSGTSASLAINGLRSEDEADYYCAAWDDSLNGYVFGTGTKLTVLG
B9: the IC50, huKv1.3 current, QPatch patch clamp in experiment [1] came out at 16 nM. In addition, in experiment [2], the Fold difference (Kv1.1 IC50 against Kv1.3 IC50) came out at 102 fold and the Kv1.3 IC50, QPatch patch clamp was determined as 12 nM. This molecule yielded a Kv1.1 IC50, QPatch patch clamp in experiment [3] of 1220 nM.

B10: F01 (EET 5-3 KnotBody) (scFv, V domains shown)
VH: EVQLVESGGGLVRPGGSLRLSCAASGFTFSSYAMSWVRQAPGKGLEWVSAISGSGGSTYYADSVKGRFTISRDNTKNSLYLQMTSLRADDTAFYYCVKDFGPGYGTGWFDYWGPGTLVTVSS
VL: YLNWYQQKPGKAPKLLIDAAGECGPNGFCGSGSDGGVCPRINMRCKQDSDCLAGCGRDSGVPSRFSGSGSGTDFTLTISSLQPEDFATYYCQQSYSTPWTFGQGTKVEIKR
The molecule B10 had an ELISA signal in experiment [4] of 102000.

B11: KB_A12_ShK (antibody, V domains shown)
VH: EVQLVESGGGLVRPGGSLRLSCAASGFTFSSYAMSWVRQAPGKGLEWVSAISGSGGSTYYADSVKGRFTISRDNTKNSLYLQMTSLRADDTAFYYCVKDFGPGYGTGWFDYWGPGTLVTVSS
VL: NWYQQLPGKAPKLLIYAAGRRSCIDTIPKSRCTAFQCKHSMKYRLSFCRKTCGTCANSGVSDRFSAAKSGTSASLAINGLRSEDEADYYCAAWDDSLNGYVFGTGTKLTVLG
Molecule B11 yielded an IC50, huKv1.3 current, QPatch patch clamp in experiment [1] of 8.6 nM. Besides, in experiment [2], the Fold difference (Kv1.1 IC50 against Kv1.3 IC50) turned out to be 3 fold; the IC50, huKv1.3 current, QPatch patch clamp is 20 nM; the Kv1.3 IC50, QPatch patch clamp is 13 nM. Besides, the Kv1.1 IC50, QPatch patch clamp in experiment [3] was 40 nM.

B12: E05 (EET 5-3 KnotBody) (scFv, V domains shown)
VH: EVQLVESGGGLVRPGGSLRLSCAASGFTFSSYAMSWVRQAPGKGLEWVSAISGSGGSTYYADSVKGRFTISRDNTKNSLYLQMTSLRADDTAFYYCVKDFGPGYGTGWFDYWGPGTLVTVSS
VL: AVNWYQQLPGKAPKLLIYAAGGCGPNGFCGSGSDGGVCPRILMRCKQDSDCLAGCGAQSGIPERFSGSKSGTSASLAISGLQSEDEAHYYCAAWDDSLNGYVFGTGTKVTVLG
Molecule B12 had an ELISA signal in experiment [4] of 119000.

B13: F03 (EET 5-3 KnotBody) (scFv, V domains shown)
VH: EVQLVESGGGLVRPGGSLRLSCAASGFTFSSYAMSWVRQAPGKGLEWVSAISGSGGSTYYADSVKGRFTISRDNTKNSLYLQMTSLRADDTAFYYCVKDFGPGYGTGWFDYWGPGTLVTVSS
VL: AVNWYQQLPGRAPKLLIYAAGGCGPNGFCGSGGDGGVCPRILMRCKQDSDCLAGCGAHSGIPERFSGSKSGTSASLAISGLRSEDEADYYCAAWDDSLNGWVFGGGTKVTVLG
In experiment [4], B13 had an ELISA signal of 68000.

B14: E01 (EET 5-3 KnotBody) (scFv, V domains shown)
VH: EVQLVESGGGLVRPGGSLRLSCAASGFTFSSYAMSWVRQAPGKGLEWVSAISGSGGSTYYADSVKGRFTISRDNTKNSLYLQMTSLRADDTAFYYCVKDFGPGYGTGWFDYWGPGTLVTVSS
VL: AVNWYQQLPGKAPKLLIYAAGGCGPNGFCGSGSDGGVCPRILMRCKQDSDCLAGCGIHSGVSDRFSDSKSGTSASLAISGLQSEDEADYYCAAWDDSLNGYVFGTGTKLTVLG
B14: the ELISA signal in experiment [4] worked out at 128000.

B15: F07 (EET 5-3 KnotBody) (scFv, V domains shown)
VH: EVQLVESGGGLVRPGGSLRLSCAASGFTFSSYAMSWVRQAPGKGLEWVSAISGSGGSTYYADSVKGRFTISRDNTKNSLYLQMTSLRADDTAFYYCVKDFGPGYGTGWFDYWGPGTLVTVSS
VL: AVNWYQQLPGKAPKLLIYAAGGCGPNGFCGSGSDGGVCPRILMRCKQDSDCLAGCGGQSGVPDRFSGSKSGTSASLAISRLQSEDEADYYCAAWDDSLNAYVFGTGTKVTVLG
Regarding B15, the ELISA signal in experiment [4] was 72800.

B16: E03 (EET 5-3 KnotBody) (scFv, V domains shown)
VH: EVQLVESGGGLVRPGGSLRLSCAASGFTFSSYAMSWVRQAPGKGLEWVSAISGSGGSTYYADSVKGRFTISRDNTKNSLYLQMTSLRADDTAFYYCVKDFGPGYGTGWFDYWGPGTLVTVSS
VL: AVNWYQQLPGKAPKLLIYAAGGCGPNGFCGSGSDGGVCPRILMRCKQDSDCLAGCGRNSGIPERFSGSKSGHTATLTISRVEAGDEADYYCQVWDSSSDHVLFGGGTKLTVLG
Regarding B16, the ELISA signal in experiment [4] is 82500.

B17: E09 (EET 5-3 KnotBody) (scFv, V domains shown)
VH: EVQLVESGGGLVRPGGSLRLSCAASGFTFSSYAMSWVRQAPGKGLEWVSAISGSGGSTYYADSVKGRFTISRDNTKNSLYLQMTSLRADDTAFYYCVKDFGPGYGTGWFDYWGPGTLVTVSS
VL: AVNWYQQLPGKAPKLLIYAAGGCGPNGFCGSGSDGGVCPRILMRCKQDSDCLAGCGTQSGIPERFSGSKSGTSASLAISGLRSEDEADYYCAAWDDSLRAYVFGTGTQLTVLG
Consider B17, for which, in experiment [4], the ELISA signal was determined as 70300.
